Paper PMC7116788 (Nature microbiology, 2021)
Like-named read-outs stand apart in the source and are kept apart here.

What was measured:
cryo-EM structure [1] = biological target: the molecule itself; test: cryo-EM structure
cryo-EM structure [2] = biological target: the molecule itself; test: cryo-EM structure; remark: listed apart in the source

B1: PorL (Porphyromonas gingivalis ATCC 33277) (natural protein, UniProt B2RLE9 1-309, looked up)
chain: MGHYRRYKNILEMYLASHKGRRLLNIVYSWGAAVVILGALFKLLHLPMGNEMLFVGMITEFLVFFISGFEKPAMEYHWEEVFPELDSKNPMDRREMEQRREYLREKAKEAAAYAERPSSVRLASASLGTQPQEQPKPATPFQSQLTGILPEEQIQRLSEGIDKLAEAGEQLARIGRTAAAMTESYEQMQADQEGLRLNSQSYIQQMESLSRNISGLNTIYEIQLKGISSQIDTIDRINRGLAHIRDMYDNSVIDSSSFRNENERMARQLTQLNEVYARLLQALTTNVGLPGMPGNFGASNPSSSGSSPL
- binding result (cryo-EM structure [1]): binds

B2: GldL (Flavobacterium johnsoniae) (natural protein)
chain: MALLSKKVMNFAYGMGAAVVIVGALFKITHFEIGPLTGTVMLSIGLLTEALIFALSAFEPVEDELDWTLVYPELANGQARKKEAKAETATDAQGLLSQKLDAMLKEAKVDGELMASLGNSIKNFEGAAKAISPTVDSIAGQKKYAEEMSMAAAQMESLNSLYKVQLESASRNAQANSEIAENAAKLKEQMASMTANIASLNSVYGGMLSAMSNKG
- stoichiometry N (cryo-EM structure [2]): 5

B3: PorM (Porphyromonas gingivalis ATCC 33277) (natural protein, UniProt B2RLE8 1-516, looked up)
chain: MAVGSNGNANRQKMINLMYLVFIAMMALNVSSEVLDGFDKVDKSLTSSIDGSDKRNNLVLSELNTAYRTNPEKVKVWYERSLVLQKEADSLCTFIDDLKLAIARESDGKDAKVNDIRRKDNLDASSVVMLNPINGKGSTLRKEVDKFRELVATLMTDKAKLKLIEQALNTESGTKGKSWESSLFENMPTVAAITLLTKLQSDVRYAQGEVLADLVKSVDVGDYRVNSITAQVIPQSQIVMSGDTYKANIVLSSVDTTQRPDVFVNGKLLSPENMGLFTATAGAPGTYPVKGYIEMMGNDGVKIRRDFESEYFVTEPMASVAPTMMNVLYAGIDNPINIAVPGVAQQNVSATINNGTLTRRGNLWIARPTKVGSEAIISVTAQSGGRTIQMAKTTLRVRALPDPLPYIEYKDVQGNTKRFKGGRLGKREILAAGGIKAALDDDLLEVNYTVVKFQLVFYDSMGNSIPEVSDGASFSERQKRQIQNLGKGKRFYVTEVIARGPDGIERKIPAIEVIVN
- stoichiometry N (cryo-EM structure [1]): 2
